System: FZD6–FZD6 dimer
Assay: dynamic FCCS of V5-FZD6-mCherry/FZD6-GFP
Type: cell-based, human
Conditions: HEK293
Method: HEK293 cells were grown over-night in Lab-Tek eight-well chamber-glass bottom slides (Nunc, Thermo Scientific, Langensbold, Germany) coated with matrigel. Data were acquired in 10 s intervals. Collection intervals containing abnormal fluorescence peaks (presumably resulting from aggregates or ROIs where the overall fluorescence was decaying, putatively due to membrane movements) were discarded from the overall analysis. The total included measurements time ranged from 20 to 80 s per cell. Measurements were only undertaken on cells where the fluorescence was well localized to the cell surface membrane, as judged by visual inspection in the wide-field and confocal mode. Autofluorescence, as well as fluorescence from both GFP and mCherry in the intracellular region was negligible. The number of fluorescent receptors assessed in each experiment varied from 10–1000 receptors per µm^2 in each HEK293 cell.
Dynamic FCCS measurements of WNT-dependent dissociation and re-association of FZD (Fig. 5c–e) were performed on an FCS/FCCS-equipped Zeiss 780 confocal microscope (Zeiss, Jena, Germany). The instrument details were the same as those of the Confocor 3 described above, with the exception that 561 nm excitation was used for excitation of mCherry, that GFP emission was detected from 500 to 550 nm, and that mCherry emission was detected from 600 to 690 nm. Experiments on cells were performed as described above, with each measurement point consisting of 3–6 measurements of 10 s each. […]
Assuming that M is FZD6-GFP (green) and N is FZD6-mCherry (red) and that all FZD6 form dimers, then the probability of finding a green–red FZD6 dimer is pgr=2×M×N/(M+N)(M+N-1)≈2×M×N/M+N^2=(2cgg+cgr)(2crr+cgr)/2cgg+cgr+crr^2 , where c gg, c gr, and c rr are the corresponding concentrations of the only green FZD6 dimers, the red and green FZD6 dimers and the only red FZD6 dimers. […] From the experiments, we determine the concentrations for c gg, c gr and c rr and compare the concentrations c gr with the c′gr for each cell to get an estimation of how close the model is to experimental data: cgr/c′gr=2cgr×(cgg+cgr+crr)/((2cgg+cgr)(2crr+cgr)) Analysis of the dynamic FCCS measurements of WNT-dependent dissociation and re-association of FZD6: Auto-correlation and cross-correlation curves were analyzed as described above and the amplitudes G g(0)−1, G r(0)−1, and G cc(0)−1 from each of the more than 300 measurements of 10 s duration were estimated by fitting to theoretical models. […]
With the settings described above for detection of emission, the crosstalk from the GFP channel to the mCherry channel, defined as the intensity detected in the mCherry channel divided by the intensity detected in the GFP channel, I r/I g, for a cell expressing only FZD-GFP, was 0.051 or 5.1 %. […]

[1] = representative cell, G cc normalized to green auto-correlation amplitude, WNT-5A

B1: WNT-5A: recombinant carrier-free WNT-5A (R&D Systems), agonist for FZDs (protein, UniProt P41221 62-380, looked up)
Protein Wnt-5a: IIGAQPLCSQLAGLSQGQKKLCHLYQDHMQYIGEGAKTGIKECQYQFRHRRWNCSTVDNTSVFGRVMQIGSRETAFTYAVSAAGVVNAMSRACREGELSTCGCSRAARPKDLPRDWLWGGCGDNIDYGYRFAKEFVDARERERIHAKGSYESARILMNLHNNEAGRRTVYNLADVACKCHGVSGSCSLKTCWLQLADFRKVGDALKEKYDSAAAMRLNSRGKLVQVNSRFNSPTTQDLVYIDPSPDYCVRNESTGSLGTQGRLCNKTSEGMDGCELMCCGRGYDQFKTVQTERCHCKFHWCCYVKCKKCTEIVDQFVCK
B1 was tested, and the “FZD6–FZD6 interaction upon stimulation (FCCS)” value (WNT-5A 300 ng ml^−1) was “a transient decrease in FZD6–FZD6 interaction”, the “red molecules also green at maximal dimer dissociation” value [1] was 6% and the “red molecules also green upon dimer re-association” value [1] was 21%.

From publication PMC5548745, “Agonist-induced dimer dissociation as a macromolecular step in G protein-coupled receptor signaling” (Nature Communications, 2017)
